One data set concerns the target APOBEC3A (UniProt P31941). As to conditions: ssDNA deaminase control.
The next data set relates to T1, AncDa04.
T1 sequence: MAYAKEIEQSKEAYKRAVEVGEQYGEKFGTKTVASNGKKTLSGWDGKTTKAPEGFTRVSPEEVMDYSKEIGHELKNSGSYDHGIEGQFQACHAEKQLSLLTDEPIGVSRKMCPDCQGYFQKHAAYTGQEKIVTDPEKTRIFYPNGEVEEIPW

In data set [1] the test system is T2, CrDa01 (Clostridium roseum).
T2 sequence: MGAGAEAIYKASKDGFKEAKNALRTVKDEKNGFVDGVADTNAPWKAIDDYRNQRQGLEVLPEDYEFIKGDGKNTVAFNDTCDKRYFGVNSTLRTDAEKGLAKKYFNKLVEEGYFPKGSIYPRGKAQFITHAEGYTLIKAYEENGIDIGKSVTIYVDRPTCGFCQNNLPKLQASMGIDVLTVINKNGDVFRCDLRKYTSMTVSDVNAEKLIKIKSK

Data set [2] has as its system T3, CsDa01 (Chitinophaga silvisoli).
T3 sequence: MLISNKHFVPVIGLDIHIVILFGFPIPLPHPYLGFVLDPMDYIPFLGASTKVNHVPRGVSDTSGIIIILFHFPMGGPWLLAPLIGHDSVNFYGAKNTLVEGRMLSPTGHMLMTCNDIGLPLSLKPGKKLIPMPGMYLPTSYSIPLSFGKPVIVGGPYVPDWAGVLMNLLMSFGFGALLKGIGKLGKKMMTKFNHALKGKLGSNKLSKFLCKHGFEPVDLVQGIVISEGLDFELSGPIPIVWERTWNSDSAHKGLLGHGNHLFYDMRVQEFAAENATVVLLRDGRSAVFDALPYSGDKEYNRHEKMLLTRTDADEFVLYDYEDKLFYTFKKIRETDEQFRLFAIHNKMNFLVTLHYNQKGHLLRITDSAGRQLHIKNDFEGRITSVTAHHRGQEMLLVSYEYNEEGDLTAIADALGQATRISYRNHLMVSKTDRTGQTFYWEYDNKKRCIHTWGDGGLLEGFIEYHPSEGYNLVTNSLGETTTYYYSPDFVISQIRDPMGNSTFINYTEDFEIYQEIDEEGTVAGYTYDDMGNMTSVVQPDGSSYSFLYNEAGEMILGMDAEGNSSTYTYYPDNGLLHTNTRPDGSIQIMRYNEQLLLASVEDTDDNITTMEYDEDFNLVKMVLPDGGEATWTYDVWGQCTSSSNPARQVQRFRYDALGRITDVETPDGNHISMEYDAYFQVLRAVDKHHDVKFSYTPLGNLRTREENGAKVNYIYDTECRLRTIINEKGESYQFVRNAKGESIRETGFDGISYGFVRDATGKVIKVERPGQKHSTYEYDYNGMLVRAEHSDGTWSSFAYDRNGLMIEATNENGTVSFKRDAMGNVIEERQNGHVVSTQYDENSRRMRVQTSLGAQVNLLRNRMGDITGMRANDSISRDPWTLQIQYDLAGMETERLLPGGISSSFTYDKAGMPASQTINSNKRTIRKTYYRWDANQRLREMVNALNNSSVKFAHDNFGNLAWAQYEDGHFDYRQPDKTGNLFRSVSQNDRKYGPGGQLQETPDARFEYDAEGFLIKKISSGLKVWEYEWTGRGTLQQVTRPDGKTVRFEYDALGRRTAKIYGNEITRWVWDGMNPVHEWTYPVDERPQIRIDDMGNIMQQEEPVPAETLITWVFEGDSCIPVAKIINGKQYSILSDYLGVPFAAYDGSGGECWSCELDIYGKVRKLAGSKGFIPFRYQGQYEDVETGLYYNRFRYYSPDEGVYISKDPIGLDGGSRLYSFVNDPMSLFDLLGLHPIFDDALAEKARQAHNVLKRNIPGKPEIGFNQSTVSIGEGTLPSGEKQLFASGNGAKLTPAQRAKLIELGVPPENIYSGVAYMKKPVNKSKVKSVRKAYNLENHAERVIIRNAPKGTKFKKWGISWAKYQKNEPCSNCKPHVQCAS

Data set [3] relates to EcDa01 (Escherichia coli).
For the next data set, the system named is T4, LbsDa01 (Simiaoa sunii).
T4 sequence: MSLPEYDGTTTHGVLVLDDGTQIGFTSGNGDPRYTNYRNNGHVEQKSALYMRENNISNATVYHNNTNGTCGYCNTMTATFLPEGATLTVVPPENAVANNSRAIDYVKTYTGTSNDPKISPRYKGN

The next data set has as its system T5, MGYPDa16 (unidentified).
T5 sequence: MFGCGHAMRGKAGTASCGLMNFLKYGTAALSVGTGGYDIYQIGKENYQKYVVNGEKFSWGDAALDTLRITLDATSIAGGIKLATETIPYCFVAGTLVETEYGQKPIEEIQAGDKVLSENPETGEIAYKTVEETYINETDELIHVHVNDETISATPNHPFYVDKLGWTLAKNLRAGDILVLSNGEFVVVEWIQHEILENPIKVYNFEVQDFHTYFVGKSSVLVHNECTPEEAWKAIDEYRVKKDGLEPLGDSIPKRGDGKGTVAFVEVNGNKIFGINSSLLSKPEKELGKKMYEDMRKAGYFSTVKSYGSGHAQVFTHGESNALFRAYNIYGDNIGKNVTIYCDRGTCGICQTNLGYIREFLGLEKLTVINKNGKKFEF

The subject of another data set is T6, MGYPDa829.
T6 sequence: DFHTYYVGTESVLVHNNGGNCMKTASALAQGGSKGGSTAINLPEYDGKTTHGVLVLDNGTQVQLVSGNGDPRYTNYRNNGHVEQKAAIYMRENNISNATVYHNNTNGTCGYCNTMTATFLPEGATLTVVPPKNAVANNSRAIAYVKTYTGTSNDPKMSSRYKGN

Data set [4] relates to SaDa02 (Streptomyces sp.).

APOBEC3A, sequence (P31941 other isoform, or with tags, fused parts or gaps): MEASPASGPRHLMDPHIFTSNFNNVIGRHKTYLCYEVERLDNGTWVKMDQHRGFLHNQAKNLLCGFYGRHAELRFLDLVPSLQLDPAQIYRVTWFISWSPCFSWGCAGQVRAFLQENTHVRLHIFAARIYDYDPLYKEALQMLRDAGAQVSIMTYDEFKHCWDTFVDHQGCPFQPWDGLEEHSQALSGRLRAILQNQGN

As for “unmodified dsDNA (E. coli C2566 genomic)”, the activity (fraction deaminated) in the data set with APOBEC3A came to 0.331; with AncDa04, 0.992; in data set [1], 0.811; in data set [2], 0.913; in data set [3], 0.566; in the data set with LbsDa01 (Simiaoa sunii) it was 0.889. Moreover, the activity (fraction deaminated) is 0.748 in the data set on MGYPDa01 (unidentified), 0.78 in the data set on MGYPDa16 (unidentified), 0.956 with MGYPDa829 and 0.607 in [4].

Source of the values: US20230357838.
